By Km is commonly meant the concentration of substrate that gives half-maximal velocity.

The source of these data is ChEMBL document CHEMBL5233245, “Monocarboxylate transporter 1 and 4 inhibitors as potential therapeutics for treating solid tumours: A review with structure-activity relationship insights” (Eur J Med Chem, 2020).

Bounds are passed on as bounds.

Substrate in data set [1]: CCC(=O)C(=O)O
Description: (§1) Substrate activity at rat MCT1 expressed in Xenopus laevis oocytes assessed as Km. The data set is classed as cell-based. Particulars: Oocyte.

Substrate in data set [2]: C[C@H](O)C(=O)O
Described as §1. Type of data set: cell-based. Particulars: Oocyte.

Substrate in data set [3]: C[C@@H](O)C(=O)O
The description is as §1. The note with it: Oocyte. The data set is classed as cell-based.

Substrate in data set [4]: CC(C)(OCc1nn(Cc2ccccc2)c2ccccc12)C(=O)O
Particulars: Homo sapiens; Oocyte; time 10.0 min.

Substrate in data set [5]: C[C@H](O)C(=O)O
Description: Substrate activity at chicken MCT3 expressed in yeast assessed as Km incubated for 3 mins by Michaelis-Menten analysis. Particulars: Gallus gallus.

Substrate in data set [6]: CC(=O)C(=O)O
Description: (§2) Substrate activity at rat MCT2 expressed in Xenopus laevis oocytes assessed as Km by Michaelis-Menten analysis. Particulars: Oocyte. Type of data set: cell-based.

Substrate in data set [7]: C[C@H](O)C(=O)O
The data set is described as §2. The data set is classed as cell-based. Particulars: Oocyte.

Substrate in data set [8]: CCC(=O)C(=O)O
The data set can be described thus: (§3) Substrate activity at rat MCT4 expressed in Xenopus laevis oocytes assessed as Km. The data set is classed as cell-based. The note with it: Oocyte.

Substrate in data set [9]: C[C@H](O)C(=O)O
The data set is described as §3. Type of data set: cell-based. The note with it: Oocyte.

B1: Monocarboxylate transporter 1 (Rattus norvegicus), P53987 (protein)
chain: MPPAIGGPVGYTPPDGGWGWAVVVGAFISIGFSYAFPKSITVFFKEIEIIFSATTSEVSWISSIMLAVMYAGGPISSILVNKYGSRPVMIAGGCLSGCGLIAASFCNTVQELYFCIGVIGGLGLAFNLNPALTMIGKYFYKKRPLANGLAMAGSPVFLSTLAPLNQAFFGIFGWRGSFLILGGLLLNCCVAGSLMRPIGPQQGKVEKLKSKESLQEAGKSDANTDLIGGSPKGEKLSVFQTVNKFLDLSLFTHRGFLLYLSGNVVMFFGLFTPLVFLSNYGKSKHFSSEKSAFLLSILAFVDMVARPSMGLAANTRWIRPRVQYFFAASVVANGVCHLLAPLSTTYVGFCIYAGVFGFAFGWLSSVLFETLMDLVGPQRFSSAVGLVTIVECCPVLLGPPLLGRLNDMYGDYKYTYWACGVILIIAGLYLFIGMGINYRLVAKEQKAEEKKRDGKEDETSTDVDEKPKKTMKETQSPAPLQNSSGDPAEEESPV
On to B1, for which the Km in data set [1] is 200 µM; in data set [2] it was 3.5 mM; in [3], > 60 mM.

B2: Monocarboxylate transporter 4 (Homo sapiens), O15427 (protein)
chain: MGGAVVDEGPTGVKAPDGGWGWAVLFGCFVITGFSYAFPKAVSVFFKELIQEFGIGYSDTAWISSILLAMLYGTGPLCSVCVNRFGCRPVMLVGGLFASLGMVAASFCRSIIQVYLTTGVITGLGLALNFQPSLIMLNRYFSKRRPMANGLAAAGSPVFLCALSPLGQLLQDRYGWRGGFLILGGLLLNCCVCAALMRPLVVTAQPGSGPPRPSRRLLDLSVFRDRGFVLYAVAASVMVLGLFVPPVFVVSYAKDLGVPDTKAAFLLTILGFIDIFARPAAGFVAGLGKVRPYSVYLFSFSMFFNGLADLAGSTAGDYGGLVVFCIFFGISYGMVGALQFEVLMAIVGTHKFSSAIGLVLLMEAVAVLVGPPSGGKLLDATHVYMYVFILAGAEVLTSSLILLLGNFFCIRKKPKEPQPEVAAAEEEKLHKPPADSGVDLREVEHFLKAEPEKNGEVVHTPETSV
Regarding B2, the Km in data set [4] is 2800 µM.

B3: Monocarboxylate transporter 3 (Gallus gallus), Q90632 (protein)
chain: MGRADPEEGQLPAPVKPPDGGWGWIVLFGCFVITGFSYAFPKAVSVYFKELMKDFHVGYSDTAWISSIMLAMLYGTGPVCSIMVNQFGCRPVMLIGGLLASSGMILASFTTNIIELYLTAGVLTGLGMALNFQPSLIMLGTYFDKRRPLANGLAAAGSPVFLSSLSPLGQVLLEKFGWRGGFLIMGGLLLNCCTCGAVMRPLDAGMKRKTEKAQDKYEAKEMLPMGGKSEEGISTTDGTKKTKKAKKKPKKGKKLLDFSIFSNRGFIIYTISKFILVLGLFVPPILLVNYAKDTGVPDTEAAFLLSIIGFIDIFARPACGMVAGLKWVRPHVAYLFSFAMLFNGLTDICSARASNYTGLVIFCVFFGISYGMVGALQFEVLMAIVGSQKFSSAIGLVLLIEAFAVLIGPPSAGRLVDALKNYEVIFYLAGSEVVLSALFLAMATYCCLNRGKKTPPPEKNPSAGGGSDTEEAESDVQEAEEHSSDNHQPAHGTDKATVAANEEANHVEDEQSGEGGRCPEADGEVSSRAGCNADQTVERDSF
In the case of B3, the Km in data set [5] came out at 6 mM.

B4: Monocarboxylate transporter 2 (Rattus norvegicus), Q63344 (protein)
chain: MPSESSVKATAAPPPFPLPPDGGWGWVVVCASFISIGFSYAFPKAVTVFFNDIKDIFKTTSSQIAWISSIMLAVMYAGGPISSVLVNNYGSRPVVIVGGLLCCTGMILASFSSSVIELYLTVGFIGGLGLAFNLQPALTIIGKYFYRKRPLANGFAMAGSPVFLSTLAPFNQFLFNSYGWKGSFLILGAIFLHSCVAGCLMRPVGPSPRAAKSKSKVGSRQDSSTKRLSKVSTAEKINRFLDFGLFTHRGFLIYLSGNVVLFLGMFAPIIFLAPYAKDKGVDDYNSAFLLSVMAFTDMFARPSVGLIANTSLIRPRIQYLFSVAIMFTGICHLLCPLAHSYTALVVYVIFFGIGFGSISSLLFECLMDQVGASRFSSAVGLVTIVECCPVLFGPPLAGKLLDITGQYKYLYIASGIVVLSSGIYLLICNAINYRLLEKERKREKARRKKSASQASKEMEALSRSKQDDVTVKVSNTHNPPSDRDKESSI
In the case of B4, the Michaelis-Menten constant (Km) in [6] is 80 µM; in data set [7] it was 750 µM.

B5: Monocarboxylate transporter 4 (Rattus norvegicus), O35910 (protein)
chain: MGGAVVDEGPTGIKAPDGGWGWAVLFGCFIITGFSYAFPKAVSVFFKELMHEFGIGYSDTAWISSILLAMLYGTGPLCSMCVNRFGCRPVMLVGGLFASLGMVAASFCRSIIQIYLTTGVITGLGLALNFQPSLIMLNRYFNKRRPMANGLAAAGSPVFLCALSPLGQLLQDHYGWRGGFLILGGLLLNCCVCAALMRPLVAPQASGGAEPHGPQRPSPRLLDLSVFRDRGFLIYAVAASIMVLGLFVPPVFVVSYAKDMGVPDTKAAFLLTILGFIDIFARPTAGFITGLKKVRPYSVYLFSFAMFFNGFTDLTGSTASDYGGLVVFCIFFGISYGMVGALQFEVLMAIVGTQKFSSAIGLVLLLEAVAVLIGPPSGGKLLDATKVYKYVFILAGAEVLTSSLVLLLGNFFCIGKRKRPEVTKPEEVASEEEKLHKPPVDVRVDSREVEHFLKAEPEKNGEVVHTPETSV
Turning to B5, the Michaelis constant (Km) in data set [8] was found to be 57 mM; in data set [9] it was 22 mM.
